± gives the standard error. For some of these results: Fewer inactive variants are shown than the library holds.
B1: glmS ribozyme (parent)
chain: AUAAAAGCGCCAGAACUACAGAAAUGUAGUUGACGAGGAGGAGGUUUAUCGAAUUUUCGGCGGAUGCCUCCAAA

Tests used:
Conditions in all cases: with glucosamine-6-phosphate
glucosamine-6-phosphate [1] = variants of: B1; experiment: kcat; higher = faster cleavage; RNA array
How it was run: (§1)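 Glucosamine-6-phosphate (40 μM to 10 mM) in HEPES/KCl/Mg(OAc)2 buffer was flowed over sequenced MiSeq chips, and tiles were imaged over ~14 h. Barcoded ribozyme variants there had been transcribed in situ by E. coli RNA polymerase and were tracked through a hybridised Cy3 probe at 37 °C. One- or two-exponential decay fits to per-tile medians, normalised to baseline and to non-cleaving reference variants, gave kobs. kcat and KM came from weighted Michaelis–Menten fits across concentrations.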

glucosamine-6-phosphate [2] = variants of: B1; experiment: KM; higher = weaker cofactor use; RNA array
How it was run: as §1

glucosamine-6-phosphate [3] = variants of: B1; experiment: self-cleavage kobs at 40 uM GlcN6P; higher = faster cleavage; RNA array
How it was run: as §1

glucosamine-6-phosphate [4] = variants of: B1; experiment: self-cleavage kobs at 160 uM GlcN6P; higher = faster cleavage; RNA array
How it was run: as §1

glucosamine-6-phosphate [5] = variants of: B1; experiment: self-cleavage kobs at 640 uM GlcN6P; higher = faster cleavage; RNA array
How it was run: as §1

glucosamine-6-phosphate [6] = variants of: B1; experiment: self-cleavage kobs at 2500 uM GlcN6P; higher = faster cleavage; RNA array
How it was run: as §1

glucosamine-6-phosphate [7] = variants of: B1; experiment: self-cleavage kobs at 10000 uM GlcN6P; higher = faster cleavage; RNA array
How it was run: as §1

Variant | kcat (glucosamine-6-phosphate [1]) [s⁻¹] | KM (glucosamine-6-phosphate [2]) [µM] | self-cleavage kobs at 40 uM GlcN6P (glucosamine-6-phosphate [3]) [s⁻¹] | self-cleavage kobs at 160 uM GlcN6P (glucosamine-6-phosphate [4]) [s⁻¹] | self-cleavage kobs at 640 uM GlcN6P (glucosamine-6-phosphate [5]) [s⁻¹] | self-cleavage kobs at 2500 uM GlcN6P (glucosamine-6-phosphate [6]) [s⁻¹] | self-cleavage kobs at 10000 uM GlcN6P (glucosamine-6-phosphate [7]) [s⁻¹]
A52G C67G | 0.000104 ± 6.8e-06 | 22.4 ± 10 | 6.74e-05 ± 9e-06 | 7.15e-05 ± 2.3e-05 | 0.000107 ± 1e-05 | 0.000123 ± 1.6e-05 | 9.62e-05 ± 8.6e-06
G29U C61G | 3.41e-05 ± 1.3e-05 |  |  |  |  |  | < 1e-05
C11U U55C | 0.00286 ± 0.00063 | 6220 ± 1800 |  | 6.7e-05 ± 1.2e-05 | 0.00029 ± 4.1e-05 | 0.000776 ± 0.0001 | 0.00181 ± 0.0003
U30C U54A | 0.000514 ± 7.7e-05 | 3790 ± 1100 |  |  | 8.25e-05 ± 2.1e-05 | 0.000182 ± 5.3e-05 | 0.000378 ± 5.6e-05
G37C A64U C68G | 1.68e-05 ± 1.7e-06 | 29.1 ± 13 |  |  |  |  | 
U65A G66C | 0.000476 ± 5.1e-05 | 1400 ± 320 |  |  | 0.000156 ± 3.2e-05 | 0.000267 ± 8.2e-05 | 0.000436 ± 8.9e-05
C16G A53C | 0.000746 ± 0.0001 | 1750 ± 490 |  | 4.82e-05 ± 2.3e-05 | 0.000233 ± 6.3e-05 | 0.000524 ± 0.00012 | 0.000599 ± 0.0001
A14G C67G | 0.00362 ± 0.00046 | 1530 ± 280 | 9.34e-05 ± 8.5e-06 | 0.000388 ± 6e-05 | 0.00104 ± 0.00011 | 0.00164 ± 0.00033 | 0.00339 ± 0.0003
G40U U46C U47G | 2.86e-05 ± 4.9e-06 |  |  |  |  |  | 
A14C A42G | 0.0097 ± 0.0025 | 2690 ± 890 | 0.000181 ± 2e-05 | 0.000475 ± 7.2e-05 | 0.00154 ± 0.00023 | 0.00494 ± 0.00075 | 0.00788 ± 0.0011
A12C G66C C70A | 8.64e-05 ± 2.7e-05 |  |  | 0.000157 ± 5.7e-05 | 3.9e-05 ± 1.8e-05 | 0.00011 ± 3.2e-05 | 8.13e-05 ± 1.6e-05
A52G G59A | < 1e-05 |  | < 1e-05 |  |  |  | 
A15U C70G | 7.6e-05 ± 6.8e-06 | 175 ± 85 |  | 4.66e-05 ± 1.1e-05 | 5.16e-05 ± 7.6e-06 | 7.05e-05 ± 8.4e-06 | 8.19e-05 ± 9.8e-06
A39G A48C | 0.000798 ± 0.00012 | 2140 ± 600 |  |  | 0.000196 ± 3.4e-05 | 0.000468 ± 9e-05 | 0.00063 ± 0.0001
A15C U31C | 0.00282 ± 0.00061 | 3830 ± 1200 | 4.49e-05 ± 9.1e-06 | 0.000136 ± 3e-05 | 0.000359 ± 4.3e-05 | 0.00104 ± 0.00023 | 0.00211 ± 0.00024

Reference: the supplement of paper PMC7125110
